According to patent publication US20260242455A1 (SCHOLAR ROCK, published 2026):
Like-named read-outs stand apart in the source and are kept apart here.

What was measured:
[1] = molecular target: T1, pro-myostatin (proGDF8), species not stated in the experiment (UniProt O14793 24-375, limits assumed); experiment: ForteBio Octet, biotinylated antigen on streptavidin sensor; IgG1
T1 construct: also called pro/latent-myostatin

[2] = molecular target: human pro-myostatin (human, UniProt O14793 24-375); experiment: cell-based or functional assay
[3] = molecular target: T2, murine pro-myostatin (mouse, UniProt O08689 25-376); experiment: cell-based or functional assay
[4] = molecular target: murine latent GDF11 (murine, UniProt Q9Z1W4 21-296; Q9Z1W4 297-405, limits assumed); experiment: ForteBio BLI
Chain of murine latent GDF11 (Q9Z1W4 21-296 limits assumed, chain 1 of 2): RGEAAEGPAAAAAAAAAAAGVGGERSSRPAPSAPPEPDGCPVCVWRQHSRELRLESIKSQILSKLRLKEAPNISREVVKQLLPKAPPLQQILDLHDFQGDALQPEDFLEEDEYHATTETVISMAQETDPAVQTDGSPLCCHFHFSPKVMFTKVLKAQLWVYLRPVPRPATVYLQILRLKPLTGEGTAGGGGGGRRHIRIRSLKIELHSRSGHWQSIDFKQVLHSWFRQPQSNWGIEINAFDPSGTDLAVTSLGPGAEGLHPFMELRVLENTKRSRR
Chain of murine latent GDF11 (Q9Z1W4 297-405 limits assumed, chain 2 of 2): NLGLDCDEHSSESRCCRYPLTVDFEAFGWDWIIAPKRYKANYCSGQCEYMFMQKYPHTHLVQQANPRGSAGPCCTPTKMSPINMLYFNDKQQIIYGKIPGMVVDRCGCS

[5] = molecular target: T3, mature myostatin growth factor (UniProt O14793 267-375, limits assumed); experiment: ForteBio BLI
T3 construct: mature; Amine-coupled to the sensor tips; also called Mature GDF8

[6] = molecular target: T4, murine latent myostatin (mouse, UniProt O08689 25-267; O08689 268-376, Non-covalent complex of prodomain and growth factor; disulfide-linked homodimer, one copy of each chain is given.); experiment: ForteBio BLI
T4 construct: recombinant in BLI, endogenous in serum immunoprecipitation; also called Murine Latent GDF8; copies: 2 + 2

[7] = molecular target: T2, murine pro-myostatin; experiment: ForteBio BLI
[8] = molecular target: murine pro + latent GDF11 (murine, UniProt Q9Z1W4 21-405, limits assumed); experiment: ForteBio BLI
Chain of murine pro + latent GDF11 (Q9Z1W4 21-405 limits assumed): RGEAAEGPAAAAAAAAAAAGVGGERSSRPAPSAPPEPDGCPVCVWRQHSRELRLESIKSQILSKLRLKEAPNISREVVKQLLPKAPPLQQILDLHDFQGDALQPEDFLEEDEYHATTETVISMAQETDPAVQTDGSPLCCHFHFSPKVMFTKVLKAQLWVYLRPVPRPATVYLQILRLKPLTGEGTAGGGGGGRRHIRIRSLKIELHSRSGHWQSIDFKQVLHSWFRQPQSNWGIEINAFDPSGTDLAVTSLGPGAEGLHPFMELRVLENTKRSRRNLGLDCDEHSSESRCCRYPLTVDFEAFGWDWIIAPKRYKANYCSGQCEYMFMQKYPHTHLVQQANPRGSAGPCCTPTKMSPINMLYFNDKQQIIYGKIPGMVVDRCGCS

[9] = molecular target: T2, murine pro-myostatin; experiment: cell-based or functional assay; remark: listed apart in the source
[10] = molecular target: T2, murine pro-myostatin; experiment: ForteBio Octet BLI kinetics
[11] = molecular target: T2, murine pro-myostatin; experiment: ForteBio Octet BLI kinetics; remark: listed apart in the source
[12] = molecular target: proGDF11 (UniProt O95390 25-407, limits assumed); experiment: ForteBio Octet QKe BLI, antibody 50 µg/mL; flagged * non-specific binding, fitted to a poor response
Chain of proGDF11 (O95390 25-407 limits assumed): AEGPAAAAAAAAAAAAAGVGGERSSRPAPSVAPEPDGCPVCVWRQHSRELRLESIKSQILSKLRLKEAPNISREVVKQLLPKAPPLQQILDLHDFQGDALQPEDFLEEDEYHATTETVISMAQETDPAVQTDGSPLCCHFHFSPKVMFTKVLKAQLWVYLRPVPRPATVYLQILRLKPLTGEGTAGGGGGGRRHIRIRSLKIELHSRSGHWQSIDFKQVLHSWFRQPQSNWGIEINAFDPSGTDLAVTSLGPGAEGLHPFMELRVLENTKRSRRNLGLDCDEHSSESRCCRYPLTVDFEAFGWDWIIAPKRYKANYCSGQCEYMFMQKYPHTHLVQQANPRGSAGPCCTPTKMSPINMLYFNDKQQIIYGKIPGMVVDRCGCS
Method: Binding affinities of antibody candidates were determined using the FortéBio Octet QKe dip and read label free assay system utilizing bio-layer interferometry. Antigens were immobilized to biosensors (streptavidin-coated biosensors for proGDF8, proGDF11 and proActivin; direct amine coupling for all others) in each experiment and the antibodies/constructs were presented in solution at high concentration (50 μg/mL) to measure binding interactions.

[13] = molecular target: T2, murine pro-myostatin; experiment: cell-based or functional assay; remark: listed apart in the source
[14] = molecular target: T2, murine pro-myostatin; experiment: cell-based or functional assay; remark: listed apart in the source
[15] = molecular target: T2, murine pro-myostatin; experiment: ForteBio Octet BLI kinetics; remark: listed apart in the source
[16] = molecular target: T2, murine pro-myostatin; experiment: cell-based or functional assay; remark: listed apart in the source

B1: Ab9 (antibody, V domains shown)
VH: QVQLVQSGAEVKKPGSSVKVSCKASGGTFSSYAISWVRQAPGQGLEWMGGIIPIFGTANYAQKFQGRVTITADESTSTAYMELSSLRSEDTAVYYCANHGLMDDSSGYYLSNAFDIWGQGTMVTVSS
VL: not shown
[1]
  Kd: 22000 nM
[2]
  Human proGDF8 IC50, Reporter assay: 12200 nM
[3]
  Murine proGDF8 IC50, Reporter assay: 19900 nM
[4]
  binding result: no binding (tested: 200 nM)
[5]
  binding result: no binding (tested: 333 nM)
[6]
  Kd: 7.8 nM
[7]
  Kd: 8.5 nM
[8]
  binding result: no binding (tested: 200 nM)

B2: Ab1 (parental), IgG4 (S228P)/lambda (antibody, V domains shown)
VH: QIQLVQSGGGVVQPGRSLRLSCAASGFTFSSYGMHWVRQAPGKGLEWVAVISYDGSNKYYADSVKGRFTISRDNSKNTLYLQMNSLRAEDTAVYYCARDLLVRFLEWSHYYGMDVWGQGTTVTVSS
VL: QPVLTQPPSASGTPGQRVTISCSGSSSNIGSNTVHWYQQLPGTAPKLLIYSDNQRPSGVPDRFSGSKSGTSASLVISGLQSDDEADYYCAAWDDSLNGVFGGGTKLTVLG
notes: Fully human IgG4 (S228P), lambda; also called parental Ab1 IgG4; copies: 2 + 2
[9]
  Activity Assay - 293T cells EC50: 839 nM
[10]
  Kd: 11 nM
  koff: 0.00262 s⁻¹
  kon: 237000 M⁻¹ s⁻¹

B3: Ab4 (germlined Ab3), IgG4 (S228P)/lambda (antibody, V domains shown)
VH: QVQLVESGGGVVQPGRSLRLSCAASGFAFSSYGMHWVRQAPGKGLEWVAVISYDGSIKYYADSVKGRFTISRDNSKNTLYLQMNSLRAEDTAVYYCARDLLVRFLEWSHKYGMDVWGQGTTVTVSS
VL: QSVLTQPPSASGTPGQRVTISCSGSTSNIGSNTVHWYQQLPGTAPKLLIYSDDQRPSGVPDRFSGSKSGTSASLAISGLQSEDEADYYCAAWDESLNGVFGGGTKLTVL
notes: Human IgG4/lambda
[11]
  Kd: 1.08 nM
  koff: 0.000272 s⁻¹
  kon: 253000 M⁻¹ s⁻¹
[12]
  Kd: 125 nM
[13]
  Activity Assay - 293T cells EC50: 447 nM

B4: Ab6 (germlined Ab5), IgG4 (S228P)/lambda (antibody, V domains shown)
VH: QVQLVESGGGVVQPGRSLRLSCAASGFAFSSYGMHWVRQAPGKGLEWVAVISYDGNNKYYADSVKGRFTISRDNSKNTLYLQMNSLRAEDTAVYYCARDLLVRFLEWSHKYGMDVWGQGTTVTVSS
VL: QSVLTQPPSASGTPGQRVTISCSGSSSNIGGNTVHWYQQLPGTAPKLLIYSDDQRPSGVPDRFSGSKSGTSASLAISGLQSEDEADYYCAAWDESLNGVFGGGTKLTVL
notes: Human IgG4/lambda
[14]
  Activity Assay - 293T cells EC50: 307 nM
[15]
  Kd: 0.954 nM
  koff: 0.000281 s⁻¹
  kon: 294000 M⁻¹ s⁻¹
[12]
  Kd: 60.7 nM

B5: Ab7 (antibody, V domains shown)
VH: QVQLQQSGAEVKKPGASVKVSCKASGYTFTSYYMHWVRQAPGQGLEWMGIINPSGGSTSYAQKFQGRVTMTRDTSTSTVYMELSSLRSEDTAVYYCARESLIRFLEDPQQGGMDVWGQGTTVTVSS
VL: QSALTQPASVSGSPGQSLTISCTGTSSDIGGYNYVSWYQQHPGKAPKLIIYDVTDRPSGVSGRFSGSKSGNTASLTISGLQTEDEAEYFCNSWTRSNNYIFGGGTKLTVLG
[16]
  EC50 Activation Assay: 555 nM
[1]
  Kd: 28000 nM
[2]
  Human proGDF8 IC50, Reporter assay: 983 nM
[3]
  Murine proGDF8 IC50, Reporter assay: 1680 nM
[4]
  binding result: no binding (tested: 200 nM)
[5]
  binding result: no binding (tested: 333 nM)
[6]
  Kd: 28.4 nM
[7]
  Kd: 32.9 nM
[8]
  binding result: no binding (tested: 200 nM)

B6: Ab10 (antibody, V domains shown)
VH: EVQLVQSGGGVVQSGRSLRLSCVASGFSFSNYGMHWVRQAPGKGLEWLAFIWYDGSNKWYADSVKGRFTISRDNSKNALYLQMNSLRAEDTAVYYCARDRYSSSWGGGFDYWGQGTVLTVSS
VL: NFMLTQPHSVSESPGRTVTIPCSGRGGSIASDSVQWYQQRPGSAPTTIIYEDNQRPSGVPDRFSGSVDSSSNSASLTISGLRTEDEADYYCQSYDASSLWVFGGKTKLTVLG
notes: also called anti-pro/latent GDF8 antibody, Ab10
[16]
  EC50 Activation Assay: 373 nM
[1]
  Kd: 300 nM
[2]
  Human proGDF8 IC50, Reporter assay: 772 nM
[4]
  binding result: no binding (tested: 200 nM)
[5]
  binding result: no binding (tested: 333 nM)
[6]
  Kd: 4.2 nM
[7]
  Kd: 3.7 nM
[8]
  binding result: no binding (tested: 200 nM)

B7: Ab11 (antibody, V domains shown)
VH: QLQLQQSGGGLVKPGGSLRLSCAASGFTFSSYSMNWVRQAPGKGLEWVSSISSSSSYIYYADSVKGRFTISRDNAKNSLYLQMNSLRAEDTAVYYCVRDRHSLGDFDYWGQGTLVTVSS
VL: SSELTQPSVSVSPGQTATITCSGDKLGDKYASWYQQKPGQSPVLVIYQDTKRPSGIPARFSGSNSGNTATLTISGTQAMDEAAYYCQAWDSTTVVFGGGTKLTVLG
notes: Fully human antibody
[16]
  EC50 Activation Assay: 1380 nM
[4]
  binding result: no binding (tested: 200 nM)
[5]
  binding result: no binding (tested: 333 nM)
[6]
  Kd: 1.8 nM
[7]
  Kd: 1.6 nM
[8]
  binding result: no binding (tested: 200 nM)

B8: Ab8 (antibody, V domains shown)
VH: QIQLVQSGAEVKKPGASVKVSCKASGYTFTSYGISWVRQAPGQGLEWMGWISAYNGNTNYAQKLQGRVTMTTDTSTSTAYMELSSLRSEDTAVYYCARVGFYDYVWGSYPYDAFDIWGQGTMVTVSS
VL: EIVMTQSPGTLSLSPGERATLSCRASQSVSSNYLAWYQQKPGQAPRLLIYDASNRATGIPARFSGSGSGTDFTLTISSLEPEDFALYYCQQYGTSPLTFGGGTKLEIKR
[16]
  EC50 Activation Assay: 1600 nM
[1]
  Kd: 500 nM
[2]
  Human proGDF8 IC50, Reporter assay: 6040 nM
[3]
  Murine proGDF8 IC50, Reporter assay: 139000 nM
[4]
  binding result: no binding (tested: 200 nM)
[5]
  binding result: no binding (tested: 333 nM)
[7]
  Kd: 1.4 nM
[8]
  binding result: no binding (tested: 200 nM)

B9: Ab15 (antibody, V domains shown)
VH: EVQLVQSGGGLVQPGRSLRLSCAASGFTFDDYAMHWVRQAPGKGLEWVSGISWNSGSIGYADSVKGRFTISRDNSKNTLYLQMNSLRAEDTAVYYCAKVDGLEYSSGHNFDYWGQGTLVTVSS
VL: QSALTQPPSVSGSPGQSVTISCTGSSSDVGYYDHVSWYQHHPGRAPKVIIYDVTKRPSGVPDRFSGSKSGNTASLTISGLQAEDEADYYCSSYAGSYTWVFGGGTELTVLG
notes: Fully human antibody
[4]
  binding result: no binding (tested: 200 nM)
[5]
  Kd: 9.5 nM
[6]
  Kd: 11 nM
[7]
  Kd: 4.7 nM
[8]
  binding result: no binding (tested: 200 nM)

B10: Ab12 (antibody, V domains shown)
VH: QVQLVQSGGGLIQPGGSLRLSCAASGFTVSSYSMNWVRQAPGKGLEWVSYISSSGSTIYYADSVKGRFTISRDNAKNSLYLQMNSLRAEDTALYYCAKVGTAAAGDAFDIWGQGTMVTVSS
VL: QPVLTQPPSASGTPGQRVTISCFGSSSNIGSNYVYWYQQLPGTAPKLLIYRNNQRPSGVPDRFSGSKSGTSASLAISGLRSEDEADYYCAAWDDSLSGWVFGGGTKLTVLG
notes: Fully human antibody
[4]
  binding result: no binding (tested: 200 nM)
[5]
  binding result: no binding (tested: 333 nM)
[6]
  Kd: 1.9 nM
[7]
  Kd: 3.9 nM
[8]
  binding result: no binding (tested: 200 nM)

B11: Ab13 (antibody, V domains shown)
VH: EVQLVQSGGGLVQPGRSLRLSCAASGFTFDDYAMHWVRQAPGKGLEWVSGISWNSGSIGYADSVKGRFTISRDNAKNSLYLQMNSLRAEDTALYYCAKDTSNGGYSSSSFDYWGQGTLVTVSS
VL: QSALTQPASVSGSPGQSITISCTGTSSDVGGYNYVSWYQQHPGTAPKLMIYDVSYRPSGVSNRFSGSKSGNTASLTISGLQAEDEADYYCSSYTSSSTLVFGTGTKVTVLG
notes: Fully human antibody
[4]
  binding result: no binding (tested: 200 nM)
[5]
  binding result: no binding (tested: 333 nM)
[7]
  Kd: 4.3 nM
[8]
  binding result: no binding (tested: 200 nM)

B12: Ab14 (antibody, V domains shown)
VH: EVQLLESRAEVKKPGESLKISCKGSGYSFTSYWIGWVRQMPGKGPEWMGIIYPGDSDTRYSPSFQGQVTISADKSISTAYLQWSSLKASDTAMYYCARLVYGGYDEPGYYFDYWGQGTLVTVSS
VL: not shown
notes: Fully human antibody
[4]
  binding result: no binding (tested: 200 nM)
[5]
  Kd: 2.1 nM
[6]
  Kd: 18.8 nM
[8]
  binding result: no binding (tested: 200 nM)
